Data reported in patent US20220324939A1 (Regeneron, published 2022).

B1: PN41539 (TCR, V domains shown)
V domain 1: AQKVTQAQTEISVVEKEDVTLDCVYETRDTTYYLFWYKQPPSGELVFLIRRNSFDEQNEISGRYSWNFQKSTSSFNFTITASQVVDSAVYFCALSEGDTGGFKTIFGAGTRLFVKA
V domain 2: NAGVTQTPKFRILKIGQSMTLQCAQDMNHNYMYWYRQDPGMGLKLIYYSVGAGITDKGEVPNGYNVSRSTTEYFPLRLELAAPSQTSVYFCASSYFPDRGLGNTIYFGEGSWLTVV
notes: stained with anti-mouse TCR constant region H57-597; full-length chains on transfected CHO cells; also called TCR No. 9
B2: PN41839 (TCR, V domains shown)
V domain 1: DAKTTQPPSMDCAEGRAANLPCNHSTISGNEYVYWYRQIHSQGPQYIIHGLKNNETNEMASLIITEDRKSSTLILPHATLRDTAVYYCIVYGGSQGNLIFGKGTKLSVKP
V domain 2: DAGVTQSPTHLIKTRGQQVTLRCSPKSGHDTVSWYQQALGQGPQFIFQYYEEEERQRGNFPDRFSGHQFPNYSSELNVNALLLGDSALYLCASSFSRVQPQHFGDGTRLSIL
notes: stained with anti-mouse TCR constant region H57-597; full-length chains on transfected CHO cells; also called TCR No. 34
B3: PN41654 (TCR, V domains shown)
V domain 1: GESVGLHLPTLSVQEGDNSIINCAYSNSASDYFIWYKQESGKGPQFIIDIRSNMDKRQGQRVTVLLNKTVKHLSLQIAATQPGDSAVYFCAEKRDNYGQNFVFGPGTRLSVLP
V domain 2: DVKVTQSSRYLVKRTGEKVFLECVQDMDHENMFWYRQDPGLGLRLIYFSYDVKMKEKGDIPEGYSVSREKKERFSLILESASTNQTSMYLCASSLYSYGYTFGSGTRLTVV
notes: stained with anti-mouse TCR constant region H57-597; full-length chains on transfected CHO cells; also called TCR No. 22
B4: PN45584 (TCR, V domains shown)
V domain 1: AQKITQTQPGMFVQEKEAVTLDCTYDTSDPSYGLFWYKQPSSGEMIFLIYQGSYDEQNATEGRYSLNFQKARKSANLVISASQLGDSAMYFCAMREGPGSGNTGKLIFGQGTTLQVKP
V domain 2: NAGVTQTPKFRILKIGQSMTLQCAQDMNHNYMYWYRQDPGMGLKLIYYSVGAGITDKGEVPNGYNVSRSTTEYFPLRLELAAPSQTSVYFCASSYSEWQNYGYTFGSGTRLTVV
notes: stained with anti-mouse TCR constant region H57-597; full-length chains on transfected CHO cells; also called TCR No. 43
B5: PN41852 (TCR, V domains shown)
V domain 1: AQTVTQSQPEMSVQEAETVTLSCTYDTSESDYYLFWYKQPPSRQMILVIRQEAYKQQNATENRFSVNFQKAAKSFSLKISDSQLGDAAMYFCAYRSALGNDMRFGAGTRLTVKP
V domain 2: DVKVTQSSRYLVKRTGEKVFLECVQDMDHENMFWYRQDPGLGLRLIYFSYDVKMKEKGDIPEGYSVSREKKERFSLILESASTNQTSMYLCASSLWALNTEAFFGQGTRLTVV
notes: stained with anti-mouse TCR constant region H57-597; full-length chains on transfected CHO cells; also called TCR No. 35
B6: PN41656 (TCR, V domains shown)
V domain 1: AQKITQTQPGMFVQEKEAVTLDCTYDTSDPSYGLFWYKQPSSGEMIFLIYQGSYDQQNATEGRYSLNFQKARKSANLVISASQLGDSAMYFCAMRDLTTSGTYKYIFGTGTRLKVLA
V domain 2: DVKVTQSSRYLVKRTGEKVFLECVQDMDHENMFWYRQDPGLGLRLIYFSYDVKMKEKGDIPEGYSVSREKKERFSLILESASTNQTSMYLCASSFGGWGYGYTFGSGTRLTVV
notes: stained with anti-mouse TCR constant region H57-597; full-length chains on transfected CHO cells; also called TCR No. 23
B7: PN41820 (TCR, V domains shown)
V domain 1: AQSVTQPGSHVSVSEGALVLLRCNYSSSVPPYLFWYVQYPNQGLQLLLKYTTGATLVKGINGFEAEFKKSETSFHLTKPSAHMSDAAEYFCAVSSGSARQLTFGSGTQLTVLP
V domain 2: DVKVTQSSRYLVKRTGEKVFLECVQDMDHENMFWYRQDPGLGLRLIYFSYDVKMKEKGDIPEGYSVSREKKERFSLILESASTNQTSMYLCASSHDRWDYGYTFGSGTRLTVV
notes: stained with anti-mouse TCR constant region H57-597; full-length chains on transfected CHO cells; also called TCR No. 31
B8: PN41613 (TCR, V domains shown)
V domain 1: AQTVTQSQPEMSVQEAETVTLSCTYDTSESDYYLFWYKQPPSRQMILVIRQEAYKQQNATENRFSVNFQKAAKSFSLKISDSQLGDAAMYFCAYRSATGNQFYFGTGTSLTVIP
V domain 2: EAQVTQNPRYLITVTGKKLTVTCSQNMNHEYMSWYRQDPGLGLRQIYYSMNVEVTDKGDVPEGYKVSRKEKRNFPLILESPSPNQTSLYFCASSLLYSNQPQHFGDGTRLSIL
notes: stained with anti-mouse TCR constant region H57-597; full-length chains on transfected CHO cells; also called TCR No. 19
B9: PN41868 (TCR, V domains shown)
V domain 1: AQTVTQSQPEMSVQEAETVTLSCTYDTSESDYYLFWYKQPPSRQMILVIRQEAYKQQNATENRFSVNFQKAAKSFSLKISDSQLGDAAMYFCAYRSATGNQFYFGTGTSLTVIP
V domain 2: DVKVTQSSRYLVKRTGEKVFLECVQDMDHENMFWYRQDPGLGLRLIYFSYDVKMKEKGDIPEGYSVSREKKERFSLILESASTNQTSMYLCASSLWGTHEKLFFGSGTQLSVL
notes: stained with anti-mouse TCR constant region H57-597; full-length chains on transfected CHO cells; also called TCR No. 37
B10: PN41869 (TCR, V domains shown)
V domain 1: AQTVTQSQPEMSVQEAETVTLSCTYDTSESDYYLFWYKQPPSRQMILVIRQEAYKQQNATENRFSVNFQKAAKSFSLKISDSQLGDAAMYFCAYRSSTGNQFYFGTGTSLTVIP
V domain 2: DVKVTQSSRYLVKRTGEKVFLECVQDMDHENMFWYRQDPGLGLRLIYFSYDVKMKEKGDIPEGYSVSREKKERFSLILESASTNQTSMYLCASSLWGTNEKLFFGSGTQLSVL
notes: stained with anti-mouse TCR constant region H57-597; full-length chains on transfected CHO cells; also called TCR No. 38
B11: PN45539 (TCR, V domains shown)
V domain 1: DAKTTQPPSMDCAEGRAANLPCNHSTISGNEYVYWYRQIHSQGPQYIIHGLKNNETNEMASLIITEDRKSSTLILPHATLRDTAVYYCIVRPYNAGNNRKLIWGLGTSLAVNP
V domain 2: DVKVTQSSRYLVKRTGEKVFLECVQDMDHENMFWYRQDPGLGLRLIYFSYDVKMKEKGDIPEGYSVSREKKERFSLILESASTNQTSMYLCASSFEGGYYGYTFGSGTRLTVV
notes: stained with anti-mouse TCR constant region H57-597; full-length chains on transfected CHO cells; also called TCR No. 41
B12: PN41712 (TCR, V domains shown)
V domain 1: AQTVTQSQPEMSVQEAETVTLSCTYDTSENNYYLFWYKQPPSRQMILVIRQEAYKQQNATENRFSVNFQKAAKSFSLKISDSQLGDTAMYFCALNTGNQFYFGTGTSLTVIP
V domain 2: GAVVSQHPSWVICKSGTSVKIECRSLDFQATTMFWYRQFPKQSLMLMATSNEGSKATYEQGVEKDKFLINHASLTLSTLTVTSAHPEDSSFYICSAWDGFYGYTFGSGTRLTVV
notes: stained with anti-mouse TCR constant region H57-597; full-length chains on transfected CHO cells; also called TCR No. 27
B13: PN41748 (TCR, V domains shown)
V domain 1: SQELEQSQQSLIVQEGKNLTINCTSSKTLYGLYWYKQKYGEGLIFLMMLQKGGEEKSHEKITAKLDEKKQQSSLHITASQPSHAGIYLCGADMYSGGGADGLTFGKGTHLIIQP
V domain 2: GAVVSQHPSWVICKSGTSVKIECRSLDFQATTMFWYRQFPKQSLMLMATSNEGSKATYEQGVEKDKFLINHASLTLSTLTVTSAHPEDSSFYICSAWDGFYGYTFGSGTRLTVV
notes: stained with anti-mouse TCR constant region H57-597; full-length chains on transfected CHO cells; also called TCR No. 29
B14: PN41703 (TCR, V domains shown)
V domain 1: DAKTTQPPSMDCAEGRAANLPCNHSTISGNEYVYWYRQIHSQGPQYIIHGLKNNETNEMASLIITEDRKSSTLILPHATLRDTAVYYCIVRPGGTYKYIFGTGTRLKVLA
V domain 2: DVKVTQSSRYLVKRTGEKVFLECVQDMDHENMFWYRQDPGLGLRLIYFSYDVKMKEKGDIPEGYSVSREKKERFSLILESASTNQTSMYLCATGGDNQPQHFGDGTRLSIL
notes: stained with anti-mouse TCR constant region H57-597; full-length chains on transfected CHO cells; also called TCR No. 26
B15: PN41867 (TCR, V domains shown)
V domain 1: AQTVTQSQPEMSVQEAETVTLSCTYDTSENNYYLFWYKQPPSRQMILVIRQEAYKQQNATENRFSVNFQKAAKSFSLKISDSQLGDTAMYFCAFMKTQGGSEKLVFGKGTKLTVNP
V domain 2: AAGVIQSPRHLIKEKRETATLKCYPIPRHDTVYWYQQGPGQDPQFLISFYEKMQSDKGSIPDRFSAQQFSDYHSELNMSSLELGDSALYFCASSLVGYGYTFGSGTRLTVV
notes: stained with anti-mouse TCR constant region H57-597; full-length chains on transfected CHO cells; also called TCR No. 36
B16: PN41550 (TCR, V domains shown)
V domain 1: QKEVEQNSGPLSVPEGAIASLNCTYSDRGSQSFFWYRQYSGKSPELIMSIYSNGDKEDGRFTAQLNKASQYVSLLIRDSQPSDSATYLCAVNLSWGKFQFGAGTQVVVTP
V domain 2: DAGVTQSPTHLIKTRGQQVTLRCSPKSGHDTVSWYQQALGQGPQFIFQYYEEEERQRGNFPDRFSGHQFPNYSSELNVNALLLGDSALYLCASSLDRSTEAFFGQGTRLTVV
notes: stained with anti-mouse TCR constant region H57-597; full-length chains on transfected CHO cells; also called TCR No. 10
B17: PN41557 (TCR, V domains shown)
V domain 1: EDQVTQSPEALRLQEGESSSLNCSYTVSGLRGLFWYRQDPGKGPEFLFTLYSAGEEKEKERLKATLTKKESFLHITAPKPEDSATYLCAVQAVTGGGNKLTFGTGTQLKVEL
V domain 2: GAVVSQHPSWVICKSGTSVKIECRSLDFQATTMFWYRQFPKQSLMLMATSNEGSKATYEQGVEKDKFLINHASLTLSTLTVTSAHPEDSSFYICSASWDRDYGYTFGSGTRLTVV
notes: stained with anti-mouse TCR constant region H57-597; full-length chains on transfected CHO cells; also called TCR No. 11
B18: PN41516 (TCR, V domains shown)
V domain 1: TQLLEQSPQFLSIQEGENLTVYCNSSSVFSSLQWYRQEPGEGPVLLVTVVTGGEVKKLKRLTFQFGDARKDSSLHITAAQPGDTGLYLCAGERDSWGKFQFGAGTQVVVTP
V domain 2: NAGVTQTPKFRILKIGQSMTLQCAQDMNHNYMYWYRQDPGMGLKLIYYSVGAGITDKGEVPNGYNVSRSTTEYFPLRLELAAPSQTSVYFCASSFWTGGDEKLFFGSGTQLSVL
notes: stained with anti-mouse TCR constant region H57-597; full-length chains on transfected CHO cells; also called TCR No. 4
B19: PN41805 (TCR, V domains shown)
V domain 1: AQTVTQSQPEMSVQEAETVTLSCTYDTSENNYYLFWYKQPPSRQMILVIRQEAYKQQNATENRFSVNFQKAAKSFSLKISDSQLGDTAMYFCAFGMYSGGGADGLTFGKGTHLIIQP
V domain 2: AAGVIQSPRHLIKEKRETATLKCYPIPRHDTVYWYQQGPGQDPQFLISFYEKMQSDKGSIPDRFSAQQFSDYHSELNMSSLELGDSALYFCASSPTGTGDGYTFGSGTRLTVV
notes: stained with anti-mouse TCR constant region H57-597; full-length chains on transfected CHO cells; also called TCR No. 30

Columns and labels:
[1] = biological target: T1, MAGE-A4 peptide on HLA-A*02:01 (human); experiment: multimer staining
T1 peptide: KVLEHVVRV

[2] = biological target: T2, soluble HLA-A2 (…) tetramer (human); experiment: flow cytometry, HLA-A2 (…) tetramer staining of CHO cells transfected with the TCR
T2 construct: Bought tetramer reagent; also called MAGE-A4/HLA tetramer reagent; HLA-A02:01 MAGE-A4 tetramer
Description: Samples were then analyzed on an LSRFortessa X-20 (BD Biosciences, San Jose, Calif.).

[3] = biological target: T3, MAGE-A4 peptide on HLA-A*02:01 (human); experiment: multimer staining
T3 peptide: GVYDGREHTV

[4] = biological target: T4, soluble HLA-A2 MAGE-A4 (…) tetramer (human); experiment: flow cytometry, HLA-A2 MAGE-A4 (…) tetramer staining of CHO cells transfected with the TCR
T4 construct: Bought tetramer reagent; also called MAGE-A4/HLA tetramer reagent; HLA-A02:01 MAGE-A4 tetramer
Description: (§1) Samples were then analyzed on an LSRFortessa X-20 (BD Biosciences, San Jose, Calif.). […] However, a more stringent cutoff, such as 3%, could be used to separate out Ag+ TCRs that behave better in the binding assay. Ag+ TCRs were determined by Next Generation Sequencing.

[5] = biological target: T4, soluble HLA-A2 MAGE-A4 (…) tetramer; experiment: flow cytometry tetramer staining; % with MAGE-A4 tetramer divided by % with MAGE-A8 tetramer (reference)
Description: as §1

Row | Binder | binding result [1] | % in Ag+ gate >250 MFI, >1% [2] [%] | binding result [3] | % tetramer in Ag+ gate (MAGE-A4) [4] [%] | MAGE-A4/MAGE-A8 (ratio of % tetramer in Ag+ gate) [5]
1 | B1 | recognises | 10.9 |  |  | 
2 | B2 | recognises | 85.4 |  |  | 
3 | B3 | recognises | 36.2 |  |  | 
4 | B4 |  |  | recognises | 69.1 | 
5 | B5 | recognises | 18 |  |  | 
6 | B6 | recognises | 13.8 |  |  | 
7 | B7 | recognises | 8.32 |  |  | 
8 | B8 | recognises | 58.7 |  |  | 
9 | B9 | recognises | 67.1 |  |  | 
10 | B10 | recognises | 76.5 |  |  | 
11 | B11 |  |  | recognises | 59.8 | 498
12 | B12 | recognises | 20.7 |  |  | 
13 | B13 | recognises | 9.56 |  |  | 
14 | B14 | recognises | 42.5 |  |  | 
15 | B15 | recognises | 73 |  |  | 
16 | B16 | recognises | 92.2 |  |  | 
17 | B17 | recognises | 8.76 |  |  | 
18 | B18 | recognises | 7.83 |  |  | 
19 | B19 | recognises | 30.4 |  |  | 
